For six sequences, Kd and IC50 results are on record in paper doi:10.1101/2025.05.09.649859.

Conditions in all cases: 25 mM Tris-HCl pH 7.5, 2 mM MgCl2, 100 mM KCl (FP, 21 C) or 100-400 mM KCl (BLI, IgG on Protein A, 25 C)
In data set [1] the test system is J2 IgG. In words: fluorescence polarization.
The test system of data set [2] is J2 IgG. In words: BLI. On the technique in general: In BLI a coated tip is dipped into the sample, and binding shifts an interference pattern.
In a further data set the test system is J2 IgG HC Y50F. Description: BLI.
A further data set has as its system J2 IgG HC Y54A. Description: BLI.
In the next data set the test system is J2 IgG LC Y31A. Description: BLI.
Another data set concerns J2 IgG HC Y52F. Description: BLI.
For a further data set, the system named is J2 IgG LC Y38F. Description: BLI.
The subject of a further data set is J2 IgG HC Y54F. Description: BLI.
In another data set the test system is J2 IgG HC A30P. Description: BLI.
Another data set has as its system J2 IgG LC Y31F. Description: BLI.
The test system of data set [3] is J2 IgG. In words: competition FP.

What is called Kd is the constant that tells how readily two partners part at equilibrium. Lower therefore signals tighter binding. In the data set with J2 IgG [1], “GGCAAGGGUAUCAUGGCGGACGACCGGGGUUCGAACCCCGGAUCCGGCCGUCCGCCGUGAUCCAUGCGGUUACCGCCCGCGUGUCGAACCCAGGUGUGCC [VA-I RNA]” came in with a dissociation constant Kd of 32 nM.

In turn, “GUUGUAAAGAAGGU / ACCUUCUUUACAAC [14-bp dsRNA]” registered an equilibrium dissociation constant (Kd) with J2 IgG [2] of 2100 nM.

For “GUUGUAAAGAAGGUCAAUAU / AUAUUGACCUUCUUUACAAC [20-bp dsRNA]”, the Kd came to 120 nM with J2 IgG [2]; 430 nM in the data set on J2 IgG HC Y50F; 300 nM in the data set with J2 IgG HC Y54A; 940 nM with J2 IgG LC Y31A; 220 nM with J2 IgG HC Y52F; 150 nM with J2 IgG LC Y38F. In addition, the Kd stood at 710 nM in the data set on J2 IgG HC Y54F, 120 nM with J2 IgG HC A30P and 360 nM in the data set on J2 IgG LC Y31F.

As to “GUUGUAAAGAAGGUCAAUAUUGUACCAAAC / GUUUGGUACAAUAUUGACCUUCUUUACAAC [30-bp dsRNA]”, the dissociation constant (Kd) with J2 IgG [2] turned out to be 12 nM.

As for “GUUGUAAAGAAGGUCAAUAUUGUACCAAACUUGAUGGAAA / UUUCCAUCAAGUUUGGUACAAUAUUGACCUUCUUUACAAC [40-bp dsRNA]”, in the data set on J2 IgG [2], the Kd amounted to 80 nM.

What is called IC50 is the concentration needed to halve the response being measured. Sequence “GUUGUAAAGAAGGUCAAUAUUGUACCAAACUUGAUGGAAAAGAACAACGU / ACGUUGUUCUUUUCCAUCAAGUUUGGUACAAUAUUGACCUUCUUUACAAC [50-bp dsRNA]” returned a dissociation constant (Kd) in the data set on J2 IgG [2] of 22 nM. In addition, the 50% inhibitory concentration (IC50) in the data set on J2 IgG [3] turned out to be 17 nM.
